{"source": "paper PMC9986639", "origin": "cited, not measured here", "molecular_target": "PAPR (Escherichia coli) (UniProt P17854)", "sequence (P17854 2-244)": "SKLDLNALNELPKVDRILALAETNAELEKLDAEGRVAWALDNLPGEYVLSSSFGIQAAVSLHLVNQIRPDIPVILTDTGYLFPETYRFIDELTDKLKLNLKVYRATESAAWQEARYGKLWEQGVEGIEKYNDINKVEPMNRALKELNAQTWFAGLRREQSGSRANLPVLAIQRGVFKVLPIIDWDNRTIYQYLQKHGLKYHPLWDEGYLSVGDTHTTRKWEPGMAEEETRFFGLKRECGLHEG", "data": [{"substance": "Trx1 (from UniProt P0AA25)", "values": [{"measurement": "Kd", "value": 110, "unit": "µM"}]}]}
